We go through 1 molecule from US20160024193A1 (AC IMMUNE S A, published 2016).

No end group written: not given here. *: point of attachment. Biotin = O=C1N[C@H]2[C@H](CS[C@H]2CCCCC(=O)*)N1; linker = not defined here

Test [1] deals with PKA-phosphorylated full-length Tau (Homo sapiens) (UniProt P10636). As to the kind of experiment: ELISA: plate coated with 0.1 µg/ml PKA-phosphorylated full-length Tau, IgG titrated 0.06 pM to 1 nM, anti-human Fc-peroxidase/TMB, absorbance 450 nm [panel B]. For orientation: ELISA stands for enzyme-linked immunosorbent assay.
The target in test [2] is T1, Non-phospho. (not fully specified; printed as Biotin - linker - GDTSPRHLSNVSSTGSID; reading uncertain).
T1 construct: also called non-phosphorylated biotinylated Tau 401-418 peptide
T1 peptide: {Biotin-linker}-GDTSPRHLSNVSSTGSID
As to the kind of experiment: ELISA: plate coated with 5 µg/ml IgG, 10 nM biotinylated peptide in solution, streptavidin-peroxidase/TMB, absorbance 450 nm. As for the experimental part:
FIG. 3. Binding of immobilized IgG antibodies to Tau-derived biotinylated peptides containing pS404 and/or pS409 as measured by ELISA. […] 10 nM of the biotinylated peptides shown in FIG. 3, and 5 μg/ml IgG, were used.
Specificity of the top five clones for phosphoserine 404 and phosphoserine 409 was also assessed by ELISA. In one experiment (FIG. 3), Nunc maxisorp microplates were coated with 5 μg/ml IgG in coating buffer (sodium carbonate pH9.6) for 70 minutes at ambient temperature. Non-specific binding sites were blocked with BBT for a minimum of 2 hours then the plates washed and 10 nM biotinylated peptide in BBT added. After 1.5 hours bound peptide was detected by a 65 minute incubation with peroxidase-conjugated Streptavidin and detection with TMB as described above. […] The peptides synthesized and used in this experiment (which correspond to amino acids 401-418 of full-length Tau) have the following amino acid sequences (Table B): […]

The target in test [3] is PKA-phosphorylated full-length Tau (Homo sapiens) (UniProt P10636). As to the kind of experiment: SPR Biacore 2000, bivalent IgG1 analyte, ~153 RU PKA-phospho Tau, ligand density 1. In general terms: In SPR one partner is held on a chip, and binding of the other changes the refractive index at the surface.
Test [4] shares this target. As to the kind of experiment: ELISA: plate coated with 1 µg/ml PKA-phosphorylated full-length Tau, IgG titrated 0.06 pM to 1 nM, anti-human Fc-peroxidase/TMB, absorbance 450 nm [panel A].
For test [5] the target is unchanged. The test is described as follows: SPR Biacore 2000, bivalent IgG1 analyte, ~824 RU PKA-phospho Tau, ligand density 2.

Chain of PKA-phosphorylated full-length Tau (Homo sapiens) (P10636 other isoform, or with tags, fused parts or gaps limits assumed): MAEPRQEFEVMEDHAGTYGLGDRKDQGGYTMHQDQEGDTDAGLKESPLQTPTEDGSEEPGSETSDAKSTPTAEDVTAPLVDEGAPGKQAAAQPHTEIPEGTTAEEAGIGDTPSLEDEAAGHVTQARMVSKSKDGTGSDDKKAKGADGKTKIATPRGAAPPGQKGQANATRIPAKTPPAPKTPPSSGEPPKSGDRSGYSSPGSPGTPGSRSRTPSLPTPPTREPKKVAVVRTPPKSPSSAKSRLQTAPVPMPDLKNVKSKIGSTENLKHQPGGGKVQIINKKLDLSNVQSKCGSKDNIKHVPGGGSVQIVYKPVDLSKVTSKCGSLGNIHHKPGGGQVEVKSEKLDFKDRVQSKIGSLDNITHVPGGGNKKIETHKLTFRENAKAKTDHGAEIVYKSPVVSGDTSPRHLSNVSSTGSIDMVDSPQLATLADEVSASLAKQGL

B1: TAM20 IgG1 (antibody, V domains shown)
VH: EVQLVQSGAEVKKPGSSVKVSCKASGYTFTDYYMNWVRQAPGQGLEWIGDINPNRGGTTYNQKFKGRVTITVDKSTSTAYMELSSLRSEDTAVYYCASYYAVGYWGQGTTVTVSS
VL: DIVMTQTPLSLPVTPGEPASISCRSSQSLVHSHGRTYLHWYLQKPGQSPQLLIYKVSNRFFGVPDRFSGSGSGTDFTLKISRVEAEDVGVYFCSQTRHFPYTFGGGTKVEIKR
The term EC50 (read off the curve) denotes the concentration needed to bring the measured effect to its halfway point. Usually koff stands for the first-order rate constant of dissociation. A low value points to slow dissociation. Broadly, the kon is the rate constant with which the complex forms. A higher kon goes with faster complex formation. Turning to B1, the EC50 (read off the curve) in test [1] was 0.02 nM. For the same molecule, the binding result in test [2] is listed as “no binding (tested: 10 nM)”. Moreover, in test [3], the Kd is 0.8 nM, the koff came out at 0.0012 s⁻¹ and the on-rate (kon) came to 1.6e+06 M⁻¹ s⁻¹. For the same molecule, in test [4], the EC50 (read off the curve) was determined as 0.006 nM. Besides, in test [5], the Kd came to 0.2 nM, the koff was 0.0003 s⁻¹ and the association rate constant (kon) stood at 1.6e+06 M⁻¹ s⁻¹.
